Values of other authors, collected in paper PMC10616597.

Biological target: TLR4 (Homo sapiens) (UniProt O00206)
Sequence of UniProt O00206 (O00206 24-839): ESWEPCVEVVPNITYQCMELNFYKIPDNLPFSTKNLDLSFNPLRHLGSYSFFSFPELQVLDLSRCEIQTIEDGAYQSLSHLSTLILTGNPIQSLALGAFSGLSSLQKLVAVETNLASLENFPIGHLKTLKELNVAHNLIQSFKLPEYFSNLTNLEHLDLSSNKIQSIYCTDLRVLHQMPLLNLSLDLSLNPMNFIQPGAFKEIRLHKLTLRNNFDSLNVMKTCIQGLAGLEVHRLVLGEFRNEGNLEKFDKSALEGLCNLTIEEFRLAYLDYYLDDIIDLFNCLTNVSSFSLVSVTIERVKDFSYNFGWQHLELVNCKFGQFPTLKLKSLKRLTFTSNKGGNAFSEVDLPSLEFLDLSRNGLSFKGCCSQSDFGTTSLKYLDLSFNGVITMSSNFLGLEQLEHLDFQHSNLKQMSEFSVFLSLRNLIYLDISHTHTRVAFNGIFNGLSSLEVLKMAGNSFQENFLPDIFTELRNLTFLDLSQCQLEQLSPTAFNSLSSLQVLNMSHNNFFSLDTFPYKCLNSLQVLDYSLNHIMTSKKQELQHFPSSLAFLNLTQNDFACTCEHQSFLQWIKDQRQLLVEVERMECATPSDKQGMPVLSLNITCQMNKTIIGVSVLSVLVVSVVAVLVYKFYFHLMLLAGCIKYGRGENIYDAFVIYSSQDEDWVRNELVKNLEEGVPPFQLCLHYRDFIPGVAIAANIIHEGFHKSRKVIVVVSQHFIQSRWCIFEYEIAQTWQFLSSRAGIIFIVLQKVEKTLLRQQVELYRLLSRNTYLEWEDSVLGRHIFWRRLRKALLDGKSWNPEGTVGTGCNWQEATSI

Kd: 0.018 µM
Substance: eNAMPT (from UniProt P43490)
